Five molecules from patent US20200407397A1 (RESEARCH FOUNDATION FOR THE STATE UNIVERSITY OF NEW YORK, published 2020) can be followed below.

Experiment [1] has as its target Lactate dehydrogenase A (LDHA), endogenous (human, UniProt P00338 2-332). As to the kind of experiment: anti-FLAG IP from HEK293, immunoblot for LDHA.
A further experiment deals with recombinant LDHA (human, UniProt P00338 1-332). Nature of the experiment: fluorescence anisotropy, labelled peptide with recombinant LDHA. The procedure: Fluorescence anisotropy was measured in triplicate using a SpectraMax i3 equipped with rhodamine fluorescence polarization module (lex\lem.535 nm/595 nm). Curve fitting was done in KaleidaGraph 4.0.
For orientation: In fluorescence polarisation assays a small probe gives low polarisation when free and higher when bound to something large.

Where no end group is shown, it is not given here.

B1: FLCN P228A mutant (FLAG-tagged) (other)
chain: MNAIVALCHFCELHGPRTLFCTEVLHAPLPQGDGNEDSPGQGEQAEEEEGGIQMNSRMRAHSPAEGASVESSSPGPKKSDMCEGCRSLAAGHPGYISHDKETSIKYVSHQHPSHPQLFSIVRQACVRSLSCEVCPGREGPIFFGDEQHGFVFSHTFFIKDSLARGFQRWYSIITIMMDRIYLINSWPFLLGKVRGIIDELQGKALKVFEAEQFGCPQRAQRMNTAFTAFLHQRNGNAARSLTSLTSDDNLWACLHTSFAWLLKACGSRLTEKLLEGAPTEDTLVQMEKLADLEEESESWDNSEAEEEEKAPVLPESTEGRELTQGPAESSSLSGCGSWQPRKLPVFKSLRHMRQVLGAPSFRMLAWHVLMGNQVIWKSRDVDLVQSAFEVLRTMLPVGCVRIIPYSSQYEEAYRCNFLGLSPHVQIPPHVLSSEFAVIVEVHAAARSTLHPVGCEDDQSLSKYEFVVTSGSPVAADRVGPTILNKIEAALTNQNLSVDVVDQCLVCLKEEWMNKVKVLFKFTKVDSRPKEDTQKLLSILGASEEDNVKLLKFWMTGLSKTYKSHLMSTVRSPTASESRN
notes: Full FLCN protein with a point mutation in the FLCN-10 region, expressed in HEK293 cells; not shown: FLAG tag (immunoprecipitated using anti-FLAG agarose)
For B1, in experiment [1], the binding result is given as “no binding”.

B2: FLCN R221A mutant (FLAG-tagged) (other)
chain: MNAIVALCHFCELHGPRTLFCTEVLHAPLPQGDGNEDSPGQGEQAEEEEGGIQMNSRMRAHSPAEGASVESSSPGPKKSDMCEGCRSLAAGHPGYISHDKETSIKYVSHQHPSHPQLFSIVRQACVRSLSCEVCPGREGPIFFGDEQHGFVFSHTFFIKDSLARGFQRWYSIITIMMDRIYLINSWPFLLGKVRGIIDELQGKALKVFEAEQFGCPQRAQAMNTAFTPFLHQRNGNAARSLTSLTSDDNLWACLHTSFAWLLKACGSRLTEKLLEGAPTEDTLVQMEKLADLEEESESWDNSEAEEEEKAPVLPESTEGRELTQGPAESSSLSGCGSWQPRKLPVFKSLRHMRQVLGAPSFRMLAWHVLMGNQVIWKSRDVDLVQSAFEVLRTMLPVGCVRIIPYSSQYEEAYRCNFLGLSPHVQIPPHVLSSEFAVIVEVHAAARSTLHPVGCEDDQSLSKYEFVVTSGSPVAADRVGPTILNKIEAALTNQNLSVDVVDQCLVCLKEEWMNKVKVLFKFTKVDSRPKEDTQKLLSILGASEEDNVKLLKFWMTGLSKTYKSHLMSTVRSPTASESRN
notes: as for B1
As for B2, in experiment [1], the binding result was “no binding”.

B3: FLCN-M222A-FLAG (other)
chain: MNAIVALCHFCELHGPRTLFCTEVLHAPLPQGDGNEDSPGQGEQAEEEEGGIQMNSRMRAHSPAEGASVESSSPGPKKSDMCEGCRSLAAGHPGYISHDKETSIKYVSHQHPSHPQLFSIVRQACVRSLSCEVCPGREGPIFFGDEQHGFVFSHTFFIKDSLARGFQRWYSIITIMMDRIYLINSWPFLLGKVRGIIDELQGKALKVFEAEQFGCPQRAQRANTAFTPFLHQRNGNAARSLTSLTSDDNLWACLHTSFAWLLKACGSRLTEKLLEGAPTEDTLVQMEKLADLEEESESWDNSEAEEEEKAPVLPESTEGRELTQGPAESSSLSGCGSWQPRKLPVFKSLRHMRQVLGAPSFRMLAWHVLMGNQVIWKSRDVDLVQSAFEVLRTMLPVGCVRIIPYSSQYEEAYRCNFLGLSPHVQIPPHVLSSEFAVIVEVHAAARSTLHPVGCEDDQSLSKYEFVVTSGSPVAADRVGPTILNKIEAALTNQNLSVDVVDQCLVCLKEEWMNKVKVLFKFTKVDSRPKEDTQKLLSILGASEEDNVKLLKFWMTGLSKTYKSHLMSTVRSPTASESRN
notes: Expressed in HEK293, UOK257 and ccRCC cells; also called M222A mutant; not shown: FLAG tag
For the molecule B3, the binding result in experiment [1] was “binds”.

B4: FLCN-F226A-FLAG (other)
chain: MNAIVALCHFCELHGPRTLFCTEVLHAPLPQGDGNEDSPGQGEQAEEEEGGIQMNSRMRAHSPAEGASVESSSPGPKKSDMCEGCRSLAAGHPGYISHDKETSIKYVSHQHPSHPQLFSIVRQACVRSLSCEVCPGREGPIFFGDEQHGFVFSHTFFIKDSLARGFQRWYSIITIMMDRIYLINSWPFLLGKVRGIIDELQGKALKVFEAEQFGCPQRAQRMNTAATPFLHQRNGNAARSLTSLTSDDNLWACLHTSFAWLLKACGSRLTEKLLEGAPTEDTLVQMEKLADLEEESESWDNSEAEEEEKAPVLPESTEGRELTQGPAESSSLSGCGSWQPRKLPVFKSLRHMRQVLGAPSFRMLAWHVLMGNQVIWKSRDVDLVQSAFEVLRTMLPVGCVRIIPYSSQYEEAYRCNFLGLSPHVQIPPHVLSSEFAVIVEVHAAARSTLHPVGCEDDQSLSKYEFVVTSGSPVAADRVGPTILNKIEAALTNQNLSVDVVDQCLVCLKEEWMNKVKVLFKFTKVDSRPKEDTQKLLSILGASEEDNVKLLKFWMTGLSKTYKSHLMSTVRSPTASESRN
notes: Expressed in HEK293 and UOK257 cells; not shown: FLAG tag
On to B4, for which the binding result in experiment [1] is “no binding”.

B5: FLCN-10-Rhodamine B (peptide)
peptide: AQRMNTAFTP
modifications: also: Rhodamine B label, site not given here
notes: Labelled form used for fluorescence anisotropy and for the ex vivo tissue treatment; also called FLCN-10-Rhod-B; Rhodamine-B-labeled FLCN-10
On to B5, for which the binding result in the experiment with recombinant LDHA is “binds”.
